Source: patent US20260132208A1 (DOMAIN THERAPEUTICS, published 2026)
Where “and” joins values, the source holds several entries; their conditions need not be identical. Equal entries are not always repeated. One block for each binder: values may come before it.

Tests used:
[1] = target: T1, human CCR8 (human, UniProt P51685 1-355); experiment: cell-based or functional assay
[2] = target: T1, human CCR8; experiment: flow cytometry, HUT78 cells (endogenous CCR8)
Method: (§1) In human activated T cells model, prior to mAb incubation, cells were first incubated with 200 nM of hCCL1 (R&D Systems, Minneapolis, MN, USA) or buffer PBS (Invitrogen by Thermofisher Scientific, Illkirch-Graffenstaden, France) supplemented by 2% Fetal Bovine Serum (Invitrogen by Thermofisher Scientific, Illkirch-Graffenstaden, France) and 2 mM EDTA (Invitrogen by Thermofisher Scientific, Illkirch-Graffenstaden, France) during 1 hour at 4° C. To determine EC50 value, 8 concentrations of anti-CCR8 mAb were tested. Unbound antibodies were washed away with PBS (Invitrogen by Thermofisher Scientific, Illkirch-Graffenstaden, France) supplemented by 2% Fetal Bovine Serum (Invitrogen by Thermofisher Scientific, Illkirch-Graffenstaden, France) and 2 mM EDTA (Invitrogen by Thermofisher Scientific, Illkirch-Graffenstaden, France). Subsequently, cells are centrifuged (5 min at 400 g) and bound antibody is detected with F(ab′)2-Goat anti-Mouse IgG (H+L) Cross-Adsorbed Secondary Antibody, Alexa Fluor 488 (dilution 1/500) (Invitrogen by Thermofisher Scientific, Illkirch-Graffenstaden, France) or with F(ab′)₂-Goat anti-Human IgG Fc Secondary Antibody, PE (Invitrogen by Thermofisher Scientific, Illkirch-Graffenstaden, France) (dilution 1/1000) at 4° C. for 30 min. Detection reagent is washed away and cells are centrifuged (5 min at 400 g) and resuspended in 30 μL PBS. Bound detection antibody is quantified on a MacsQuant16 (Miltenyi, Gladbach, Germany) (B1 or B2 channel, 5000 events per acquisition). During the experiment, the respective isotype mAb controls (mouse IgG1, mouse IgG2a, mouse IgG2b, mouse IgG3 or human IgG1) (Biolegend, Amsterdam, The Netherlands) are included to exclude any unspecific binding events. EC50 values were determined via nonlinear fit “log (agonist) vs.response—Variable slope (four parameters)” function of Graphpad prism. EC50 values were not constantly determined in the same experiments.
Anti-CCR8 mAb cellular reactivity was also evaluated on native human CCR8 from HUT78 cell line by flow cytometry. In Table 4.3, Mean Fluorescence Intensity (Fold change to isotype control), the percentage of labelled cells and EC50 in nM of some anti-CCR8 antibodies are presented.

[3] = target: T1, human CCR8; experiment: flow cytometry, human activated T cells (endogenous CCR8)
Method: as §1
Binding characteristics of anti-CCR8 mAb cellular reactivity was further investigated by testing their binding to activated T cells.

[4] = target: T1, human CCR8; experiment: flow cytometry, human activated T cells pre-saturated with 200 nM hCCL1
Method: Unbound antibodies were washed away with PBS (Invitrogen by Thermofisher Scientific, Illkirch-Graffenstaden, France) supplemented by 2% Fetal Bovine Serum (Invitrogen by Thermofisher Scientific, Illkirch-Graffenstaden, France) and 2 mM EDTA (Invitrogen by Thermofisher Scientific, Illkirch-Graffenstaden, France). Subsequently, cells are centrifuged (5 min at 400 g) and bound antibody is detected with F(ab′)2-Goat anti-Mouse IgG (H+L) Cross-Adsorbed Secondary Antibody, Alexa Fluor 488 (dilution 1/500) (Invitrogen by Thermofisher Scientific, Illkirch-Graffenstaden, France) or with F(ab′)₂-Goat anti-Human IgG Fc Secondary Antibody, PE (Invitrogen by Thermofisher Scientific, Illkirch-Graffenstaden, France) (dilution 1/1000) at 4° C. for 30 min. Detection reagent is washed away and cells are centrifuged (5 min at 400 g) and resuspended in 30 μL PBS. Bound detection antibody is quantified on a MacsQuant16 (Miltenyi, Gladbach, Germany) (B1 or B2 channel, 5000 events per acquisition). During the experiment, the respective isotype mAb controls (mouse IgG1, mouse IgG2a, mouse IgG2b, mouse IgG3 or human IgG1) (Biolegend, Amsterdam, The Netherlands) are included to exclude any unspecific binding events. EC50 values were determined via nonlinear fit “log (agonist) vs.response—Variable slope (four parameters)” function of Graphpad prism. EC50 values were not constantly determined in the same experiments.
Binding characteristics of anti-CCR8 mAb cellular reactivity was further investigated by testing their binding to activated T cells. […] For some anti-CCR8 antibodies, their binding on hCCR8 from human activated T cells was tested after a pre-saturation with 200 nM of hCCL1.

[5] = target: T2, human CCR8 with a SNAP-tag at the N-terminus (human, UniProt P51685 1-355, SNAP-tag labelled covalently with Lumi4-Terbium); experiment: HTRF Tag-lite, inhibition of hCCL1-AF647 binding to SNAP-hCCR8 on HEK-293 cells
T2 construct: also called hCCR8 SNAP-tag; CCR8 SNAP-tag

[6] = target: T3, pm8 (Y15, Y16 and Y17 sulfated); experiment: ELISA on coated peptide [cont.]
T3 construct: also called sulfated CCR8 N-terminal peptide pm8
T3 sequence (peptide, as listed by the source): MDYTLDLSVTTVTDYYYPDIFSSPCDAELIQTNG
Method in brief: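 Coat: peptide 500 ng/ml, carbonate/bicarbonate buffer. mAb 1 μg/mL, then 1/10 dilution; 90 min RT; wash. TMB 15 min; OD read = reactivity.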

IC50 of CCL1-induced hCCR8 Gi2 signaling (BRET, HEK-293) [1]: 0.02 µg/mL and 0.134 nM
% of labelled cells [2]: 93%
% of labelled cells [3]: 63%
% of labelled cells [4]: 54%
IC50 [5]: 0.02 µg/mL
Ki [5]: 0.01 µg/mL and 0.07 nM
B1: anti-CCR8 mAb 1-25 (antibody, human IgG1, kappa, V domains shown)
VH: QVQLVESGGGVVQPGRSLRLSCAASGFTFSNYRMHWVRQAPGKGLEWIAVIKVKSDNYGANYADSVKGRFTISRDNSKNTLYLQMNSLRAEDTAVYYCSSPTYPGSSGFAYWGQGTLVTVSS
VL: DIQMTQSPSSLSASVGDRVTITCRASQDISNYLNWYQQKPDGTVKLLIYYTSRLHTGVPSRFSGSGSGTDYTLTISNLQQEDIATYFCQQGNKFPPTFGGGTKVEINR
notes: Humanized mAb, human IgG1 / kappa

IC50 of CCL1-induced hCCR8 Gi2 signaling (BRET, HEK-293) [1]: 0.029 µg/mL and 0.194 nM
binding result [6]: binds
% of labelled cells [2]: 23%
% of labelled cells [3]: 79%
% of labelled cells [4]: 64%
IC50 [5]: 0.09 µg/mL
Ki [5]: 0.05 µg/mL
B2: anti-CCR8 mAb 1-20 (antibody, human IgG1, kappa)
heavy: not shown
light: DIVMTQAAPSLSVTPGESASISCTSSKSLLHSNGNTYLYWFLQKPGQSPQLLIYRMSNLASGVPDRFSGSGSGTAFTLKISRVEAEDVGVYYCMQHREYPFTFGSGTKLEIKRTVAAPSVFIFPPSDEQLKSGTASVVCLLNNFYPREAKVQWKVDNALQSGNSQESVTEQDSKDSTYSLSSTLTLSKADYEKHKVYACEVTHQGLSSPVTKSFNRGEC
notes: as for B1

IC50 of CCL1-induced hCCR8 Gi2 signaling (BRET, HEK-293) [1]: 0.068 µg/mL and 0.452 nM
binding result [6]: binds
% of labelled cells [2]: 97%
% of labelled cells [3]: 92%
% of labelled cells [4]: 92%
IC50 [5]: 0.15 µg/mL
Ki [5]: 0.08 µg/mL and 0.5 nM
B3: anti-CCR8 mAb 1-22 (antibody, human IgG1, kappa, V domains shown)
VH: EVQLLESGGGLVQPGGSLRLSCAASGFTFNAYAMNWVRQAPGKGLEWVARIRSKSNDYATYYGDSVKGRFTISRDNSKNTLYLQMNSLRAEDTAVYYCVRGREAYYRYDGGYYAMDVWGQGTTVTVSS
VL: DIVMTQSPLSLPVTPGEPASISCRSSKSLLHSNGNTYLYWFLQKPGQSPQLLIYRVSNLASGVPDRFSGSGSGTDFTLKISRVEAEDVGVYYCMQHREYPFTFGQGTKLEIKR
notes: as for B1
